Test results reported in PMC4222845 (PLoS Pathogens, 2014).

Target: the molecule itself
Experiment: SEC; Superdex 200 10/300 GL, 10 mM Tris-HCl pH 7.5, 150 mM NaCl, 0.5 mL/min, 4°C; equivalent molar concentrations, incubated 15 minutes; molecular weight from BioRad gel-filtration standards

B1: IpgC (natural protein)
chain: MSLNITENESISTAVIDAINSGATLKDINAIPDDMMDDIYSYAYDFYNKGRIEEAEVFFRFLCIYDFYNVDYIMGLAAIYQIKEQFQQAADLYAVAFALGKNDYTPVFHTGQCQLRLKAPLKAKECFELVIQHSNDEKLKIKAQSYLDAIQDIKE
notes: also called translocator-specific chaperone from Shigella
stoichiometry N: 2
